Experimental findings from paper doi:10.1101/2024.05.03.592134 are described below.

Test [1] addresses Bxy_22780 E350G mutant (nucleophile mutant) (Bacteroides xylanisolvens). The test can be described thus: crystal structure.
Test [2] concerns the target Bxy_22780 wild-type (β-1,2-galactosidase from Bacteroides xylanisolvens, GH35) (Bacteroides xylanisolvens). The test can be described thus: crystal structure.

The term stoichiometry N denotes the number of molecules, sites or subunits per partner or assembly. For “Bxy_22780 E350G mutant (nucleophile mutant) (enzyme)”, the stoichiometry N in test [1] turned out to be 4. “Bxy_22780 wild-type (β-1,2-galactosidase from Bacteroides xylanisolvens, GH35) (enzyme)” displayed a stoichiometry N in test [2] of 4.
